Assay [1] concerns the target EGFR on DLD-1 cells (UniProt P00533). Kind of assay: cell-based or functional assay.
The target of assay [2] is T1, CD79b on cells (Ramos cells, endogenous B cells) (human, UniProt P40259 29-229).
T1 sequence (looked up): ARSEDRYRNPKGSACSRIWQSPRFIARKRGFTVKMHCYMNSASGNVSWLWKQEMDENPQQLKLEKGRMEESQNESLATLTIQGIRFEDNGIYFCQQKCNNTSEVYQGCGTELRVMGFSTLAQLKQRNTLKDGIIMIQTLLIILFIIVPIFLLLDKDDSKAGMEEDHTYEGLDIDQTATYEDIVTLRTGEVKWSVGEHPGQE
Kind of assay: cell-based or functional assay.

Necitumumab (antibody) registered an IC50 (nM), DLD-1 cell killing by M0 macrophages in assay [1] of 0.0574 nM.

B1: CD79b/5C7 (1+1 B) Fc-optimized (bispecific antibody, human IgG1, kappa)
heavy 1: EQQLVETGGGLIQPGGSLRLSCAASGFTINIDYWISWVRQAPGKGLEWIGIIDPGDGTTYFAIWVSGRFTISFDNSKNTVYLQMNSLRAEDTAVYFCVREFSASAYQYDLWGPGTLVTVSSASTKGPSVFPLAPSSKSTSGGTAALGCLVKDYFPEPVTVSWNSGALTSGVHTFPAVLQSSGLYSLSSVVTVPSSSLGTQTYICNVNHKPSNTKVDKKVEPKSCDKTHTCPPCPAPELLAGPSVFLFPPKPKDTLMISRTPEVTCVVVDVSHEDPEVKFNWYVDGVEVHNAKTKPREEQYNSTYRVVSVLTVLHQDWLNGKEYKCKVSNKALPLPEEKTISKAKGQPREPQVYTLPPSRDELTKNQVSLSCAVKGFYPSDIAVEWESNGQPENNYKTTPPVLDSDGSFFLVSKLTVDKSRWQQGNVFSCSVMHEALHNHYTQKSLSLSPGK
heavy 2: DIQMTQSPSSLSASVGDRVTITCQASESVDRNNRLAWFQQKPGKPPKLLIYTTSTLASGVPSRFSGSGSGTDFTLTISSLQPEDVATYYCAGYRGAHTDGDAFGGGTKVEIKGGGGSGGGGSGGGGSGGGGSEQQLVESGGGLVKPGGSLRLSCAASGFSFSRSSYMCWVRQAPGKGLEWIGCLSVGDGHTYYASWAKGRFTISKDSAKNSVYLQMNSLRAEDTAVYFCARAPSYSGDGGHGYDLWGPGTLVTVSSDKTHTCPPCPAPELLAGPSVFLFPPKPKDTLMISRTPEVTCVVVDVSHEDPEVKFNWYVDGVEVHNAKTKPREEQYNSTYRVVSVLTVLHQDWLNGKEYKCKVSNKALPLPEEKTISKAKGQPREPQVYTLPPSRDELTKNQVSLWCLVKGFYPSDIAVEWESNGQPENNYKTTPPVLDSDGSFFLYSKLTVDKSRWQQGNVFSCSVMHEALHNHYTQKSLSLSPGK
light: ELVMTQSPATLSVSPGERATLSCRASEDIENYLAWYQQKPGQPPRLLIYRASTLSSGVPARFSGSGSGTEFTLTISSLQSEDFAVYYCQQGYRNSNVDNPFGGGTKVEIKRTVAAPSVFIFPPSDEQLKSGTASVVCLLNNFYPREAKVQWKVDNALQSGNSQESVTEQDSKDSTYSLSSTLTLSKADYEKHKVYACEVTHQGLSSPVTKSFNRGEC
Turning to B1, the “IC50 (nM), killing of endogenous B cells by PBMCs, Donor 234” value in assay [2] came out at 0.0453 nM.

B2: CD79b/5C7 (2+2 B) Fc-optimized (bispecific antibody, human IgG1, kappa)
heavy: EQQLVETGGGLIQPGGSLRLSCAASGFTINIDYWISWVRQAPGKGLEWIGIIDPGDGTTYFAIWVSGRFTISFDNSKNTVYLQMNSLRAEDTAVYFCVREFSASAYQYDLWGPGTLVTVSSASTKGPSVFPLAPSSKSTSGGTAALGCLVKDYFPEPVTVSWNSGALTSGVHTFPAVLQSSGLYSLSSVVTVPSSSLGTQTYICNVNHKPSNTKVDKKVEPKSCDKTHTCPPCPAPELLAGPSVFLFPPKPKDTLMISRTPEVTCVVVDVSHEDPEVKFNWYVDGVEVHNAKTKPREEQYNSTYRVVSVLTVLHQDWLNGKEYKCKVSNKALPLPEEKTISKAKGQPREPQVYTLPPSRDELTKNQVSLTCLVKGFYPSDIAVEWESNGQPENNYKTTPPVLDSDGSFFLYSKLTVDKSRWQQGNVFSCSVMHEALHNHYTQKSLSLSPGGGGGSGGGGSGGGGSDIQMTQSPSSLSASVGDRVTITCQASESVDRNNRLAWFQQKPGKPPKLLIYTTSTLASGVPSRFSGSGSGTDFTLTISSLQPEDVATYYCAGYRGAHTDGDAFGCGTKVEIKGGGGSGGGGSGGGGSGGGGSEQQLVESGGGLVKPGGSLRLSCAASGFSFSRSSYMCWVRQAPGKCLEWIGCLSVGDGHTYYASWAKGRFTISKDSAKNSVYLQMNSLRAEDTAVYFCARAPSYSGDGGHGYDLWGPGTLVTVSS
light: B1 light
With B2, in assay [2], the “IC50 (nM), killing of endogenous B cells by PBMCs, Donor 367” value stood at 0.0168 nM and the “IC50 (nM), killing of endogenous B cells by PBMCs, Donor 431” value came to 0.0168 nM.

(Values after EP4792891A2 (LTZ Therapeutics Inc., dated 2026).)
